Read-outs that look alike come from different tables or passages of the source.

One assay deals with T1, human BAFF-R on cells (human, UniProt Q96RJ3 1-184).
T1 construct: whole, on cells; also called TNFRSF13C
Kind of assay: flow cytometry on 293T cells stably expressing human BAFF-R, detected with PE-conjugated anti-human Fc antibody. For orientation: A flow cytometer gives signals particle by particle.

For assay [1], the target named is T2, human BCMA on cells (human, UniProt Q02223 1-184).
T2 sequence: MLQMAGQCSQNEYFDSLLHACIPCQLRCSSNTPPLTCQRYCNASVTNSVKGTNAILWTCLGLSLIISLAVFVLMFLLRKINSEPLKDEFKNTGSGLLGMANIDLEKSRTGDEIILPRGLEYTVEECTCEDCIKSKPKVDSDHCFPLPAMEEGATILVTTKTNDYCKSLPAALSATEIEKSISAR
Put plainly: cell-based or functional assay.

Assay [2] concerns the target T2, human BCMA on cells. Kind of assay: FACS, MM.1S cells. The protocol: (§1) Cells were analyzed using a BD FACS Canto system. Fluorescence-activated cell sorting (FACS) data were analyzed using Flowjo software to calculate mean fluorescence intensity (MFI) (n=3 replicates) and data (mean MFI+/−standard error of the mean [SEM] versus nM of the antibody) was generated using the GraphPad Prism software.

Assay [3] concerns the target T2, human BCMA on cells. Kind of assay: FACS, NCI-H929 cells. As to the method:
as §1

The target of assay [4] is T2, human BCMA on cells. Put plainly: FACS, RPMI-8226 cells. The protocol: as §1
Assay [5] addresses T2, human BCMA on cells. Put plainly: FACS, U266B1 cells. As to the method: as §1
A further assay addresses T3, human TACI on cells (human, UniProt O14836 1-293).
T3 construct: whole, on cells; also called TNFRSF13B
T3 sequence (looked up): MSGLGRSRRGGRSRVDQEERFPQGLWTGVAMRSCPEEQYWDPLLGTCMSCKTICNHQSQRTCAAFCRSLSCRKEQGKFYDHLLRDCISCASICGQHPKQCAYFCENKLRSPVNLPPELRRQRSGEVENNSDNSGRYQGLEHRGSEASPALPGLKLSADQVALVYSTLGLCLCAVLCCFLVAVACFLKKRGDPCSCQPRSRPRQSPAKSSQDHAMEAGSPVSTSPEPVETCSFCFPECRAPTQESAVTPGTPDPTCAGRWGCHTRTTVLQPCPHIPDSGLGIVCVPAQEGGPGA
Put plainly: flow cytometry on 293T cells stably expressing human TACI, detected with PE-conjugated anti-human Fc antibody.

Assay [6] concerns the target T2, human BCMA on cells. Put plainly: cell-based or functional assay. This is another data set of the same source.
Assay [7] deals with T2, human BCMA on cells. Put plainly: cell-based or functional assay. This is another data set of the same source.
Assay [8] has as its target T2, human BCMA on cells. Put plainly: FACS, ARP-1 cells. The protocol:
as §1

Assay [9] has as its target T4, cynomolgus BCMA on cells (cynomolgus monkey, UniProt Q02223 1-184 (human entry)). Kind of assay: FACS, 293T-cBCMA cells.
Another assay deals with T5, mouse BCMA on cells (mouse, UniProt O88472 1-185).
T5 construct: HEK293T cells transfected with plasmid encoding mouse BCMA (Invivogen)
T5 sequence: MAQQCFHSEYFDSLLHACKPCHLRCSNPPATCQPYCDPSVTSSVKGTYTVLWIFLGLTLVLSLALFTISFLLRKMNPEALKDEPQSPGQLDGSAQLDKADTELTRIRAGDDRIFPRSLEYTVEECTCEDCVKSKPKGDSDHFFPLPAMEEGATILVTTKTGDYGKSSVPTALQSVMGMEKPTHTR
Put plainly: FACS, 293T-mBCMA cells; NB: No binding. As to the method: Cells were plated in 96-well plates (100 k per well) and incubated with antibodies (titrated half-log serial dilutions from 200 nM) for 1 hour on ice. […] Cells were analyzed using a BD LSR-Fortessa X-20 flow cytometry system. FACS data were analyzed using Flowjo software to calculate geometric fluorescence intensity (gMFI) (n=3 replicates) and data (geo. Mean MFI+/−SEM versus log nM Ab) were generated using GraphPad Prism software.

Assay [10] addresses T2, human BCMA on cells. Put plainly: FACS, OPM-2 cells. The protocol: as §1
For assay [11], the target named is T2, human BCMA on cells. Kind of assay: FACS, 293T-hBCMA cells.
Assay [12] deals with T6, human BCMA-Fc (human, UniProt Q02223 1-54).
T6 construct: Bought from R&D Systems; also called huBCMA-Fc; not shown: Fc part not described
T6 sequence: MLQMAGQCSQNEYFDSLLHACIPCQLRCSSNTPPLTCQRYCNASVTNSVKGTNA
Put plainly: SPR Biacore, human BCMA-Fc kinetics. The protocol:
Anti-Fab or anti-Fc polyclonal antibodies were immobilized onto a CM5 chip (GE Life Sciences) using amine coupling chemistry (from Amine Coupling Kit, GE Life Sciences). The immobilization steps were carried out at a flow rate of 25 μL/min in 1×HBS-EP+ buffer (GE Life Sciences; 10× Stock diluted before use). The sensor surfaces were activated for 7 min with a mixture of NHS (0.05 M) and EDC (0.2 M). The anti-Fab or anti-Fc antibodies were injected over all 4 flow cells at a concentration of 25 μg/ml in 10 mM sodium acetate, pH 4.5, for 7 min. Ethanolamine (1 M, pH 8.5) was injected for 7 min to block any remaining activated groups.
Off-rate and kinetic binding experiments were performed at 25° C. using 1×HBS-EP+ buffer. […] After capturing ligand (antibody) on the anti-Fab or anti-Fc surface, the analyte (human BCMA-Fc, cyno BCMA-Fc, or human BCMA from R&D Systems, custom protein production, or Sigma Aldrich, respectively) was bound for 180 seconds, followed by a 600 second dissociation phase at a flow rate of 50 μL/min. Between each ligand capture and analyte binding cycle, regeneration was carried out using 2 injections of 10 mM glycine pH 2.0 for 30 seconds at 30 μL/min, followed by a 30 second buffer wash step.
The data was fit with the Biacore T200 Evaluation software, using a 1-1 Langmuir binding model. KD (affinity, nM) was determined as a ratio of the kinetic rate constants calculated from the fits of the association and dissociation phases.

Assay [13] concerns the target T2, human BCMA on cells. Kind of assay: FACS, NCI-H929 cells. The essentials:
(§2)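 Detection used 2.5 μg/ml Alexa647 anti-human IgG for 1 h on ice, then cells were fixed in 2% PFA. Read-out is the flow-cytometry geometric mean fluorescence intensity.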
This is another data set of the same source.

The target of assay [14] is T4, cynomolgus BCMA on cells. Put plainly: FACS, 293T-cynoBCMA cells. An outline of the steps:
as §2

The next assay has as its target T7, rat BCMA on cells (rat).
T7 construct: whole, on cells
Put plainly: FACS, 293T-ratBCMA cells.

The next assay has as its target T8, cyno BCMA-Fc (cynomolgus monkey, UniProt Q02223 1-54 (human entry)).
T8 construct: Custom protein production; also called cynomolgus BCMA-Fc; not shown: Fc part not described
Put plainly: ELISA, coated cynoBCMA-Fc.

Assay [15] addresses T6, human BCMA-Fc. Put plainly: ELISA, coated huBCMA-Fc.
The target of assay [16] is T4, cynomolgus BCMA on cells. Put plainly: FACS, 293T-cynoBCMA cells; NSB = non-saturating binding.
For assay [17], the target named is T6, human BCMA-Fc. Kind of assay: SPR Biacore, antibody captured, 25 C. (In general: SPR reads the build-up and loss of mass on a sensor chip optically.)

T4 sequence (Q02223 other isoform, or with tags, fused parts or gaps): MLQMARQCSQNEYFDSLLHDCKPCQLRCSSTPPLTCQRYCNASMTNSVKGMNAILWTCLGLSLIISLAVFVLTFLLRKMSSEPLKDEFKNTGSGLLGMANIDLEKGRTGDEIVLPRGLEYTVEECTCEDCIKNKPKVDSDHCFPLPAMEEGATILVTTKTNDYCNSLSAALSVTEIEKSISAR

B1: Conjugate 4 (antibody, human IgG1, kappa, V domains shown)
VH: EVQLVESGGGLVQPGGSLRLSCAASGFNISAPGIHWVRQAPGKGLEWVGFINPAGGYTDYADSVKGRFTISADTSKNTAYLQMNSLRAEDTAVYYCARDYIRQYWTYVLDYWGQGTLVTVSS
VL: not shown
modifications: p-azidomethyl-phenylalanine in place of HC-Y180 and HC-F404 (EU numbering), each bonded to a non-cleavable maytansine linker-warhead (Conjugate M); DAR4
notes: also called Conjugate 4 ADC; SP8919 ADC
By Kd is commonly meant the free concentration of one partner at which half of the binding sites on the other are occupied at equilibrium, for simple one-to-one binding. A low value points to higher affinity. With B1, the binding result was “no binding (tested: 67 nM)” with human BAFF-R on cells, “no binding (tested: 67 nM)” in the assay with human TACI on cells and “no binding (tested: 200 nM)” with mouse BCMA on cells. Further, the “cell killing EC50, NCI-H929, Experiment 1” value with human BCMA on cells [1] turned out to be 0.7 nM; in the assay with human BCMA on cells [6], 0.8 nM. In addition, the “cell killing EC50, NCI-H929, Experiment 2” value in the assay with human BCMA on cells [1] and with human BCMA on cells [6] was 0.8 nM in each case. For the same molecule, the “cell killing EC50, OPM2, Experiment 1” value with human BCMA on cells [1] and in the assay with human BCMA on cells [6] was 1.7 nM each time. Besides, the entries for the “cell killing EC50, OPM2, Experiment 2” value with human BCMA on cells [1] and in the assay with human BCMA on cells [6] were 2 nM and 1.8 nM, respectively. The “cell killing EC50, U266B1, Experiment 1” value with human BCMA on cells [1] was 0.7 nM; with human BCMA on cells [6], 0.8 nM. In addition, the “cell killing EC50, U266B1, Experiment 2” value worked out at 0.8 nM with human BCMA on cells [1] and 0.9 nM in the assay with human BCMA on cells [6]. The Kd stood at 1.6 nM with human BCMA on cells [2]; 2.4 nM with human BCMA on cells [3]; 1.8 nM in the assay with human BCMA on cells [4]; 3.9 nM in the assay with human BCMA on cells [5]; 1.2 nM with human BCMA on cells [8]; 2.7 nM with cynomolgus BCMA on cells [9]. For the same molecule, the Kd in the assay with human BCMA on cells [10] came out at 2.3 nM. Also, in the assay with human BCMA on cells [7], the “cell killing EC50, ARP-1, no competing reagent” value stood at 0.7 nM. Further, in the assay with human BCMA on cells [7], the “cell killing EC50, NCI-H929, no competing reagent” value stood at 0.9 nM. Besides, in the assay with human BCMA on cells [7], the “cell killing EC50, OPM2, no competing reagent” value came out at 3.3 nM. Moreover, the “cell killing EC50, U266B1, no competing reagent” value in the assay with human BCMA on cells [7] worked out at 0.9 nM.

B2: 2265-F02 Y180/F404 (unconjugated Ab) (antibody, human IgG1, kappa, V domains shown)
VH: EVQLVESGGGLVQPGGSLRLSCAASGFNISAPGIHWVRQAPGKGLEWVGFINPAGGYTDYADSVKGRFTISADTSKNTAYLQMNSLRAEDTAVYYCARDYIRQYWTYVLDYWGQGTLVTVSS
VL: not shown
modifications: p-azidomethyl-phenylalanine in place of HC-Y180 and HC-F404 (EU numbering), unconjugated
notes: also called unconjugated anti-BCMA antibody, 2265-F02; unconjugated antibody version of Conjugate 4
B2: the Kd in the assay with human BCMA on cells [2] is 0.9 nM; in the assay with human BCMA on cells [11] it was 2.1 nM; in the assay with human BCMA on cells [3] it was 0.9 nM; with human BCMA on cells [4], 1.3 nM; in the assay with human BCMA on cells [8], 1 nM; with cynomolgus BCMA on cells [9], 2.8 nM. The molecule also had a Kd in the assay with human BCMA on cells [10] of 1.3 nM. In the assay with mouse BCMA on cells, the binding result is recorded as “no binding (tested: 200 nM)”.

B3: 10H1 (antibody, V domains shown)
VH: AVTLDESGGGLQTPGGALSLVCKASGFTFSGYGMGWMRQAPGKGLEYVARINSAGSDTDYGAAVKGRATISRDNGQSTVRLQLNNLRAEDTATYFCTRGGGGASIDGWGHGTEVIVSS
VL: ALTQPSSVSANPGETVKITCSGGGNYYGSYYYGWYQQKAPGSAPVTVIYNNNNRPSNIPSRFSGSKSGSTGTLTITGVQAEDEAVYFCGGFDSSSDAIFGAGTTLTVL
notes: Chicken HybriFree-derived antibody; also called Antibody 45
The term koff denotes a measure of how fast the partners let go of each other. One may read the kon as the second-order rate constant of association. The low end stands for slower complex formation, the high end for faster complex formation. Consider B3, for which the Kd with human BCMA-Fc [12] worked out at 2.92 nM; in the assay with human BCMA on cells [13], 0.36 nM; with cynomolgus BCMA on cells [14], 0.25 nM; with rat BCMA on cells, 0.39 nM. The molecule further returned an off-rate constant (koff) in the assay with human BCMA-Fc [12] of 17.9 s⁻¹. For the same molecule, the kon with human BCMA-Fc [12] came to 6.14e+09 M⁻¹ s⁻¹. Further, the Bmax was 22500 MFI with human BCMA on cells [13], 21200 MFI with cynomolgus BCMA on cells [14] and 4350 MFI in the assay with rat BCMA on cells.

B4: 2190-B01 (antibody, V domains shown)
VH: EVQLVESGGGLVQPGGSLRLSCAASGFNISSYWIHWVRQAPGKGLEWVGVITPSGGYTYYADSVKGRFTISADTSKNTAYLQMNSLRAEDTAVYYCARDLGGGYWVGFFDYWGQGTLVTVSS
VL: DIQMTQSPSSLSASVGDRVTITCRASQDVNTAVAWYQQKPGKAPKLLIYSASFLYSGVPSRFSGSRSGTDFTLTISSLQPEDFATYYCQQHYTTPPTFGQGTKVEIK
notes: also called Antibody 16
What is called EC50 is the concentration that produces a half-maximal response. The low end stands for higher potency in that assay, the high end for lower potency in that assay. Take B4: in the assay with cyno BCMA-Fc, the Bmax was found to be 2.15e+06 and the EC50 was determined as 19.3 nM. In the assay with human BCMA-Fc [15], the Bmax was found to be 3.68e+06 and the EC50 was 0.3 nM. In the assay with cynomolgus BCMA on cells [16], the binding result is “binds”. Further, in the assay with human BCMA-Fc [17], the Kd came out at 5.23 nM, the koff was 0.000712 s⁻¹ and the kon came out at 136000 M⁻¹ s⁻¹.

(Values after patent US20220362394A1 (SUTRO BIOPHARMA, published 2022).)
